Data: the supplement of paper PMC10567573

B1: MCOLN1 (parent)
chain: EEEDLRRRLKYFFMSPCDKFRAKG

Variants of: B1
Assay: protein stability index of a GFP-peptide fusion (GPS, HEK-293T) (PSI 1-6); higher = more stable
Details: c terminus: a fixed tail appended
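Note: lentivirally expressed fusions sorted by FACS into six bins by GFP to DsRed ratio, PSI derived from sequencing read proportions per bin multiplied by bin number.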

Going from EWEDLRRRLKYFFMSPCDKFRAKG [E2W] to EMEDLRRRLKYFFMSPCDKFRAKG [E2M], the protein stability index falls from 4.34 to 2.58.

Compared with EDEDLRRRLKYFFMSPCDKFRAKG [E2D], EAEDLRRRLKYFFMSPCDKFRAKG [E2A] is higher in protein stability index: 1.92 for the first, 2.37 for the second.

Compared with EREDLRRRLKYFFMSPCDKFRAKG [E2R], ETEDLRRRLKYFFMSPCDKFRAKG [E2T] is lower in protein stability index: 3.07 for the first, 1.72 for the second.

Going from EPEDLRRRLKYFFMSPCDKFRAKG [E2P] to ENEDLRRRLKYFFMSPCDKFRAKG [E2N], the protein stability index falls from 2.23 to 1.96.

Compared with EGEDLRRRLKYFFMSPCDKFRAKG [E2G], EEEDLRRRLKYFFMSPCDKFRAEG [K23E] is higher in protein stability index: 1.67 for the first, 2.47 for the second.

First: EEEDLRRRLKYFFMSPCDKFRAGG [K23G]
Second: EEEDLRRRLKYFFMSPCDKFRANG [K23N]
The protein stability index of the first is lower: 1.84 for the first, 2.56 for the second.

First: EEEDLRRRLKYFFMSPCDKFRAWG [K23W]
Second: EEEDLRRRLKYFFMSPCDKFRAMG [K23M]
The protein stability index of the first is lower: 1.2 for the first, 1.33 for the second.

First: EEEDLRRRLKYFFMSPCDKFRAHG [K23H]
Second: EEEDLRRYLKYFFMSPCDKFRAKG [R8Y]
The protein stability index of the first is higher: 1.84 for the first, 1.64 for the second.

Compared with EEEDLRRTLKYFFMSPCDKFRAKG [R8T], EEEDLRRHLKYFFMSPCDKFRAKG [R8H] is lower in protein stability index: 2.42 for the first, 2.35 for the second.

First: EEEDLRRCLKYFFMSPCDKFRAKG [R8C]
Second: EEEDLRRWLKYFFMSPCDKFRAKG [R8W]
The protein stability index of the first is lower: 1.86 for the first, 2.42 for the second.

Compared with EEEDLRRFLKYFFMSPCDKFRAKG [R8F], EEEDLRRDLKYFFMSPCDKFRAKG [R8D] is higher in protein stability index: 1.42 for the first, 3.11 for the second.

First: EEEDLRRMLKYFFMSPCDKFRAKG [R8M]
Second: EEEDLRRQLKYFFMSPCDKFRAKG [R8Q]
The protein stability index of the first is lower: 2.05 for the first, 3 for the second.

Going from EEEDLRPRLKYFFMSPCDKFRAKG [R7P] to EEEDLRYRLKYFFMSPCDKFRAKG [R7Y], the protein stability index falls from 3.33 to 2.65.

Compared with EEEDLRVRLKYFFMSPCDKFRAKG [R7V], EEEDLRWRLKYFFMSPCDKFRAKG [R7W] is lower in protein stability index: 2 for the first, 1.91 for the second.

Compared with EEEDLRMRLKYFFMSPCDKFRAKG [R7M], EEEHLRRRLKYFFMSPCDKFRAKG [D4H] is higher in protein stability index: 1.55 for the first, 2.04 for the second.

Compared with EEEKLRRRLKYFFMSPCDKFRAKG [D4K], EEEYLRRRLKYFFMSPCDKFRAKG [D4Y] is higher in protein stability index: 1.83 for the first, 2.18 for the second.

First: EEEMLRRRLKYFFMSPCDKFRAKG [D4M]
Second: EEEALRRRLKYFFMSPCDKFRAKG [D4A]
The protein stability index of the first is higher: 1.48 for the first, 1.13 for the second.

Compared with EEEDLRRRLKYNFMSPCDKFRAKG [F12N], EEEDLRRRLKYEFMSPCDKFRAKG [F12E] is lower in protein stability index: 4.11 for the first, 3.9 for the second.

Going from EEEDLRRRLKYIFMSPCDKFRAKG [F12I] to EEEDLRRRLKYVFMSPCDKFRAKG [F12V], the protein stability index falls from 2.93 to 2.65.

Compared with EEEDLRRRLKYDFMSPCDKFRAKG [F12D], EEEDLRRRLKYKFMSPCDKFRAKG [F12K] is lower in protein stability index: 3.61 for the first, 2.98 for the second.

Compared with EEEDLRRRLKYHFMSPCDKFRAKG [F12H], EEEDLRRRLKYMFMSPCDKFRAKG [F12M] is higher in protein stability index: 2.5 for the first, 2.91 for the second.

Going from EEEDLRRRLKYYFMSPCDKFRAKG [F12Y] to EEEDLRRRLKYLFMSPCDKFRAKG [F12L], the protein stability index rises from 2.69 to 3.73.

First: EEEDLRRRLKYCFMSPCDKFRAKG [F12C]
Second: EEEDLRRRLKYQFMSPCDKFRAKG [F12Q]
The protein stability index of the first is lower: 3.27 for the first, 3.53 for the second.

Compared with EEEDLRRRLKYFFMSPCDKFLAKG [R21L], EEEDLRRRLKYFFMSPCDKFAAKG [R21A] is higher in protein stability index: 2.19 for the first, 2.52 for the second.

First: EEEDLRRRLKYFFMSPCDKFNAKG [R21N]
Second: EEEDLRRRLKYFFMSPCDKFTAKG [R21T]
The protein stability index of the first is lower: 3.01 for the first, 3.05 for the second.

First: EEEDLRRRLKYFFMSPCDKFEAKG [R21E]
Second: EEEDLRRRLKYFFMSPCDKFDAKG [R21D]
The protein stability index of the first is higher: 3.45 for the first, 3.15 for the second.

Compared with EEEDLRRRLKYFFMSPCDKFYAKG [R21Y], EEEDLRRRLKYFFMSPCDKHRAKG [F20H] is higher in protein stability index: 2.54 for the first, 2.61 for the second.

Going from EEEDLRRRLKYFFMSPCDKTRAKG [F20T] to EEEDLRRRLKYFFMSPCDKNRAKG [F20N], the protein stability index rises from 3.45 to 3.62.

First: EEEDLRRRLKYFFMSPCDKVRAKG [F20V]
Second: EEEDLRRRLKYFFMSPCDKKRAKG [F20K]
The protein stability index of the first is lower: 3.06 for the first, 3.58 for the second.

Compared with EEEDLRRRLKYFFMSPCDKARAKG [F20A], EEEDLRRRLKYFFMSPCDKRRAKG [F20R] is lower in protein stability index: 3.82 for the first, 3.04 for the second.

Going from EEEDLRRRLKYFFMSPCDKDRAKG [F20D] to EEEDLRRRLKYFFMSPCDKMRAKG [F20M], the protein stability index falls from 3.79 to 2.77.

First: EEEDLRRRLKYFFMSPCDKLRAKG [F20L]
Second: EEEDLRRRLKYFFMDPCDKFRAKG [S15D]
The protein stability index of the first is lower: 3.33 for the first, 3.4 for the second.

First: EEEDLRRRLKYFFMNPCDKFRAKG [S15N]
Second: EEEDLRRRLKYFFMTPCDKFRAKG [S15T]
The protein stability index of the first is lower: 2.62 for the first, 3.1 for the second.

Compared with EEEDLRRRLKYFFMIPCDKFRAKG [S15I], EEEDLRRRLKYFFMHPCDKFRAKG [S15H] is higher in protein stability index: 1.82 for the first, 2.79 for the second.

Going from EEEDLRRRLKYFFMWPCDKFRAKG [S15W] to EEEDLRRRLKYFFMRPCDKFRAKG [S15R], the protein stability index rises from 2.49 to 2.91.

First: EEEDLRRRLKYFFMLPCDKFRAKG [S15L]
Second: EEEDLRRRLKYFFMFPCDKFRAKG [S15F]
The protein stability index of the first is lower: 2.05 for the first, 2.26 for the second.

Compared with EEEDLRRRCKYFFMSPCDKFRAKG [L9C], EEEDLRRRRKYFFMSPCDKFRAKG [L9R] is higher in protein stability index: 3.03 for the first, 3.35 for the second.

First: EEEDLRRRYKYFFMSPCDKFRAKG [L9Y]
Second: EEEDLRRRWKYFFMSPCDKFRAKG [L9W]
The protein stability index of the first is higher: 2.97 for the first, 2.32 for the second.

Going from EEEDLRRRFKYFFMSPCDKFRAKG [L9F] to EEEDLRRRPKYFFMSPCDKFRAKG [L9P], the protein stability index rises from 2.96 to 3.64.

First: EEEDLRRRVKYFFMSPCDKFRAKG [L9V]
Second: EEEDLRRRMKYFFMSPCDKFRAKG [L9M]
The protein stability index of the first is lower: 3.15 for the first, 3.27 for the second.

Going from EEEDLRRRDKYFFMSPCDKFRAKG [L9D] to EEEDLNRRLKYFFMSPCDKFRAKG [R6N], the protein stability index falls from 4.1 to 3.78.

Compared with EEEDLIRRLKYFFMSPCDKFRAKG [R6I], EEEDLKRRLKYFFMSPCDKFRAKG [R6K] is lower in protein stability index: 2 for the first, 1.9 for the second.

Going from EEEDLLRRLKYFFMSPCDKFRAKG [R6L] to EEEDLQRRLKYFFMSPCDKFRAKG [R6Q], the protein stability index rises from 1.76 to 3.04.

Going from EEEDLYRRLKYFFMSPCDKFRAKG [R6Y] to EEEDLRRRLKIFFMSPCDKFRAKG [Y11I], the protein stability index rises from 1.64 to 1.93.

First: EEEDLRRRLKAFFMSPCDKFRAKG [Y11A]
Second: EEEDLRRRLKEFFMSPCDKFRAKG [Y11E]
The protein stability index of the first is lower: 2.9 for the first, 3.73 for the second.

Going from EEEDLRRRLKCFFMSPCDKFRAKG [Y11C] to EEEDLRRRLKRFFMSPCDKFRAKG [Y11R], the protein stability index falls from 2.77 to 2.38.

First: EEEDLRRRLKKFFMSPCDKFRAKG [Y11K]
Second: EEEDLRRRLKFFFMSPCDKFRAKG [Y11F]
The protein stability index of the first is lower: 2.65 for the first, 2.88 for the second.
